In patent publication US20220218614A1, “IONIZABLE CATIONIC LIPIDS AND LIPID NANOPARTICLES, AND METHODS OF SYNTHESIS AND USE THEREOF” (Tidal Therapeutics, Inc., priority 2020, published 2022):
“Also recorded” adds a separate entry of the source.

Key:
Assay type in all cases: cell-based
[1] = system: human CD8 T cells; test: Transfection of human CD8 T cells with Fab-targeted Cy5/GFP mRNA LNPs; details: Lipid 8 LNP, Cy5/GFP mRNA approximately 2.5 μg/mL, approximately 24 hr, Fab conjugate post-inserted
Protocol: LNPs were prepared using the mixing process described in Example 6, the buffer exchange process described in Example 21. hSP34 and TRX2 Fab-lipid conjugates generated from methods described in Example 4 and a non-T cell specific anti-HER2 lipid-conjugate (Nellis D F, Ekstrom D L, Kirpotin D B, Zhu J, Andersson R, Broadt T L, Ouellette T F, Perkins S C, Roach J M, Drummond D C, Hong K, Marks J D, Park J W and Giardina S L (2005) Preclinical manufacture of an anti-HER2 scFv-PEG-DSPE, liposome-inserting conjugate. 1. Gram-scale production and purification. Biotechnol Prog 21:205-220) were post-inserted at various densities (SP34 0.6-17 g/mol; TRX2 3-9 g/mol; anti-HER2 17 g/mol) into LNPs containing Lipid 8, Cy5 labeled GFP mRNA and GFP mRNA (1:9 Cy5:GFP mass ratio) by adding conjugate and LNPs together and heating the solution without mixing in a thermal cycler at 60 C for 60 min and cooled to 4° C. for 3-5 min. […] After transfection, LNP binding efficiency (Cy5) and transfection efficiency (GFP) was evaluated by flow cytometry. Supernatants were measured for human IFNγ concentration using a commercially available ELISA kit under manufacturers recommended conditions (R&D Systems Duoset). […]

[2] = system: human CD3 T cells; test: Transfection of human CD3 T cells (CD8 and CD4 subsets) with Fab/Nb-targeted LNPs; details: targeted Lipid 8 LNP (Lipid 5 in Example 43), GFP mRNA approximately 2.5 μg/mL, approximately 24 hr
Protocol: LNPs were prepared using the mixing process described in Example 6, the buffer exchange process described below in Example 21. Using methods similar to Example 12, hSP34 and TRX2 Fab-lipid conjugates and a non-T cell specific anti-HER2 lipid-conjugate (Nellis D F, Ekstrom D L, Kirpotin D B, Zhu J, Andersson R, Broadt T L, Ouellette T F, Perkins S C, Roach J M, Drummond D C, Hong K, Marks J D, Park J W and Giardina S L (2005) Preclinical manufacture of an anti-HER2 scFv-PEG-DSPE, liposome-inserting conjugate. 1. Gram-scale production and purification. Biotechnol Prog 21:205-220) were post-inserted at various densities (SP34 0.25-17 g/mol; TRX2 0.25-9 g/mol; SP34+TRX2 0.25-9 g/mol each conjugate; anti-HER2 17 g/mol) into LNPs containing Lipid 8 and anti-CD20 targeting CART mRNA. Transfections were performed with human CD3 T cells at approximately 2.5 μg/mL mRNA for approximately 24 hr. For FACS analysis T cells were stained with M1 antibody (Sigma, F3040) that bind a N-terminus FLAG-tag variant sequence on the TTR-023 CAR (sequence provided below) in addition to staining for CD69 (Biolegend, 310930) and CD4 (Biolegend, 344648) to differentiate CD8 from CD4 cells.
LNPs were prepared using the mixing process described in Example 6, the buffer exchange process described in Example 21. Using methods similar to Example 12, hSP34, TRX2, and Ibalizumab Fab-lipid conjugates and a non-T cell specific anti-HER2 lipid-conjugate were post-inserted at various densities (specified in FIGS. 20A and 20B into LNPs containing Lipid 8 and Cy5/GFP mRNA. Transfections were performed with human CD3 T cells at approximately 2.5 μg/mL mRNA for approximately 24 hr and stained for CD69 (Biolegend, 310930) and CD4 (Biolegend, 344648) to differentiate CD8 from CD4 cells by FACS analysis.
LNPs were prepared using the mixing process described in Example 6, the buffer exchange process described in Example 21. Conjugates were generated using a method similar to that of Example 4 except 0.025, 0.1, 0.5 mM TCEP was used for hSP34 DS, 0.025, 0.2, 2 mM TCEP was used for hSP34-hlam NoDS (interchain disulfide knockout) for reduction prior to conjugation and the conjugation reactions were performed at 37 C for 2 hr. SDS-PAGE (FIGS. 65A, 65B) was performed using the manufacturers recommended conditions with 1 ug of protein (Thermo, 4-12% Bis-Tris MiniGel). RP-HPLC (FIGS. 65C, 65D) was performed using an Agilent 300 SB-C8 at 0.5 mL/min with a column temperature of 60° C., Mobile Phase A: Water with 0.1% TFA, Mobile Phase B: Acetonitrile with 0.1% TFA, Gradient % B: 0 min 5%, 1 min 5%, 6.5 min 95%, 8 min 95% injecting 10 ul with a target of 1-25 ug of protein. Using methods similar to Example 12, ant-CD3 hSP34 (with and without natural interchain disulfide, DS (with interchain disulfide) vs. NoDS (without interchain disulfide), see sequences below) PEG-lipid conjugated Fabs were post-inserted at various Fab densities (6, 12, 17 g Fab/mol total lipid) into LNPs containing Lipid 8 and Cy5/GFP mRNA. Transfections were performed with human CD3 T cells at approximately 2.5 μg/mL mRNA for approximately 24 hr. Levels of transfection of CD3 T cells was measured by flow cytometry.
LNPs were prepared using the mixing process described in Example 6, the buffer exchange process described in Example 21. Conjugates were generated using a method similar to that of Example 4 except 0.1 mM TCEP was used for reduction prior to conjugation and the conjugation reaction was performed at 37 C for 2 hr. […]

[3] = system: IFNγ; test: Human IFNγ ELISA of T cell culture supernatants after LNP transfection; details: T cells approximately 24 hr after targeted LNPs at approximately 2.5 μg/mL mRNA
Protocol: LNPs were prepared using the mixing process described in Example 6, the buffer exchange process described in Example 21. hSP34 and TRX2 Fab-lipid conjugates generated from methods described in Example 4 and a non-T cell specific anti-HER2 lipid-conjugate (Nellis D F, Ekstrom D L, Kirpotin D B, Zhu J, Andersson R, Broadt T L, Ouellette T F, Perkins S C, Roach J M, Drummond D C, Hong K, Marks J D, Park J W and Giardina S L (2005) Preclinical manufacture of an anti-HER2 scFv-PEG-DSPE, liposome-inserting conjugate. 1. Gram-scale production and purification. Biotechnol Prog 21:205-220) were post-inserted at various densities (SP34 0.6-17 g/mol; TRX2 3-9 g/mol; anti-HER2 17 g/mol) into LNPs containing Lipid 8, Cy5 labeled GFP mRNA and GFP mRNA (1:9 Cy5:GFP mass ratio) by adding conjugate and LNPs together and heating the solution without mixing in a thermal cycler at 60 C for 60 min and cooled to 4° C. for 3-5 min. […] After transfection, LNP binding efficiency (Cy5) and transfection efficiency (GFP) was evaluated by flow cytometry. Supernatants were measured for human IFNγ concentration using a commercially available ELISA kit under manufacturers recommended conditions (R&D Systems Duoset).
IFN-γ was assayed using an R&D Duoset […] ELISA kit, PN DY285B. […] Optical density at 450 nm was read on a Spectramax M5 plate reader. […]

Molecule | transfection (% GFP+, GFP MFI) and binding (% Cy5+, Cy5 MFI), in words [1] | % GFP transfection and GFP expression (MFI) of CD8 and CD4 T cells, in words [2] | IFNγ secretion into supernatant, in words [3]
OKT8: anti-CD8 Fab, SEQ ID NO: 8 and 9 (antibody) heavy: QVQLVQSGAEDKKPGASVKVSCKASGFNIKDTYIHWVRQAPGQGLEWMGRIDPANDNTLYASKFQGRVTITADTSSNTAYMELSSLRSEDTAVYYCGRGYGYYVFDHWGQGTTVTVSSASTKGPSVFPLAPSSKSTSGGTAALGCLVKDYFPEPVTVSWNSGALTSGVHTFPAVLQSSGLYSLSSVVTVPSSSLGTQTYICNVNHKPSNTKVDKKVEPKSSDKTHTC light: DIVMTQSPSSLSASVGDRVTITCRTSRSISQYLAWYQEKPGKAPKLLIYSGSTLQSGVPSRFSGSGSGTDFTLTISSLQPEDFATYYCQQHNENPLTFGQGTKVEIKRTVAAPSVFIFPPSDEQLKSGTASVVCLLNNFYPREAKVQWKVDNALQSGNSQESVTEQDSKDSTYSLSSTLTLSKADYEKHKVYACEVTHQGLSSPVTKSFNRGES | high levels of particle binding |  | 
BDSn: anti-CD8 Nanobody, SEQ ID NO: 77 (protein, conjugate) VHH: EVQLVESGGGLVQAGGSLRLSCAASGSTFSDYGVGWFRQAPGKGREFVADIDWNGEHTSYADSVKGRFATSRDNAKNTAYLQMNSLKPEDTAVYYCAADALPYTVRKYNYWGQGTQVTVSSGGCGGHHHHHH |  | higher % transfection (FIG. 73A) and GFP expression levels (FIG. 73B) than anti-CD8 TRX2; also recorded: transfection and translation was only observed in the CD8 T cell population | did not mediate substantial IFNγ secretion levels over non-targeted mutOKT8 Fab
